Measurements taken from patent publication US20050282743A1, “Molecular interactions in cells” (Arbor Vita Corporation, priority 2001, published 2005).
One block for each binder: values may come before it.

What was measured:
[1] = biological target: T1, GST-ZO-2 PDZ domain 1 (Homo sapiens (Human)), Q9UDY2; test: G assay with desipramine or nortryptilline against no drug
T1 chain: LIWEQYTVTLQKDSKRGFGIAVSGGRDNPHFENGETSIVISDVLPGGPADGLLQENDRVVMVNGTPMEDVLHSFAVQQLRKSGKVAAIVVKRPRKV

[2] = biological target: T2, GST-BAI-1 Associated Protein PDZ domain 2 (Mus musculus (Mouse)), Q6RHR9; test: G assay titration, PDZ 0.1 ug/ml
[3] = biological target: GST-DLG1 PDZ domains 1, 2 (Homo sapiens), Q12959; test: G' assay; further: key of the grades not given here
[4] = biological target: T3, GST-Shank 3 PDZ domain 1 (human (hypothetical, computer cloned)), Q9BYB0; test: G' assay; further: key of the grades not given here
T3 chain: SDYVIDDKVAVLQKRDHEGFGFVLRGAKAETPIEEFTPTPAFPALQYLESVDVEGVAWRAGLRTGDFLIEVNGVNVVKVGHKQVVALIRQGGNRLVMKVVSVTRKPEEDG

[5] = biological target: GST-PIST PDZ domain 1 (Mus musculus (Mouse)), Q8BH60; test: G' assay; further: key of the grades not given here
[6] = biological target: T4, GST-ZO-1 PDZ domain 1 (Rattus norvegicus (Rat)), A0A0G2; test: G' assay; further: key of the grades not given here
T4 chain: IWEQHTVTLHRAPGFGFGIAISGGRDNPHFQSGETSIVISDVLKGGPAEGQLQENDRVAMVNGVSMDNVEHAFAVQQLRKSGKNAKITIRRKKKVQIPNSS

[7] = biological target: T5, GST-Atrophin-1 Interacting Protein PDZ domain 1 (Rattus norvegicus (Rat)), O88382; test: G' assay; further: key of the grades not given here
[8] = biological target: T2, GST-BAI-1 Associated Protein PDZ domain …; test: G' assay; further: key of the grades not given here
[9] = biological target: T6, GST-MUPP1 PDZ domain 10 (Homo sapiens (Human)), O75970; test: G' assay; further: key of the grades not given here
T6 chain: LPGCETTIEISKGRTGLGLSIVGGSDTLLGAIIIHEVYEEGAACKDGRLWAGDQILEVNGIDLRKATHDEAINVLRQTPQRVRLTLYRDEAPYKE

[10] = biological target: T7, GST-EZRIN Binding Protein 50 PDZ domain 1 (Homo sapiens (Human)), O14745; test: G' assay; further: key of the grades not given here
T7 chain: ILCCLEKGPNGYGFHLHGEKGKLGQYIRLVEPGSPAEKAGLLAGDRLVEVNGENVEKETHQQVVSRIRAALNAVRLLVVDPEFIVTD

[11] = biological target: T8, GST-NeDLG PDZ domains 1, 2, Q92796; test: G' assay; further: key of the grades not given here
T8 chain: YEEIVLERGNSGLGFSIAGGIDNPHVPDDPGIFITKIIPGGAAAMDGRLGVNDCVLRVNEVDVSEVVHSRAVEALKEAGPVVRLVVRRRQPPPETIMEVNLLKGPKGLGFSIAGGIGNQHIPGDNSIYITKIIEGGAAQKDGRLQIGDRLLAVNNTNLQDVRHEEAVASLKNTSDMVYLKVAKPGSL

[12] = biological target: T1, GST-ZO-2 PDZ domain 1 (Homo sapiens …); test: G' assay; further: key of the grades not given here
[13] = biological target: GST-KIAA807 [GST: P08515]; test: G' assay; further: key of the grades not given here
[14] = biological target: T9, GST-KIAA0807(S) PDZ domain 1 (Homo sapiens (Human)), Q6P0Q8; test: G' assay; further: key of the grades not given here
T9 chain: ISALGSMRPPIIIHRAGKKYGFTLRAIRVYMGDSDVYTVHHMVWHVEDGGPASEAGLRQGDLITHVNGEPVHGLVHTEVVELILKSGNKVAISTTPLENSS

[15] = biological target: T10, GST-NOS1 PDZ domain 1 (Homo sapiens (Human)), P29475; test: G' assay; details: remark: other sources report otherwise; further: key of the grades not given here
T10 chain: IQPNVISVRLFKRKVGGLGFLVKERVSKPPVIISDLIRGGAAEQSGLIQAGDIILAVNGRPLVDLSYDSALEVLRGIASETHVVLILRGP

[16] = biological target: GST-PSD95 PDZ domains 1, 2, 3 (Homo sapiens), P78352; test: G' assay; further: key of the grades not given here
[17] = biological target: T11, GST-Outer Membrane PDZ domain 1 (Homo sapiens (Human)), P57105; test: G' assay; further: key of the grades not given here
T11 chain: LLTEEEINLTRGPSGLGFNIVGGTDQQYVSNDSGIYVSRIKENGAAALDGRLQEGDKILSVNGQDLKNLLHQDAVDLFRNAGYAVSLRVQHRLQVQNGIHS

[18] = biological target: T12, GST-Shank 1 PDZ domain 1 (Homo sapiens (Human)), Q9UPX8; test: G' assay; further: key of the grades not given here
T12 chain: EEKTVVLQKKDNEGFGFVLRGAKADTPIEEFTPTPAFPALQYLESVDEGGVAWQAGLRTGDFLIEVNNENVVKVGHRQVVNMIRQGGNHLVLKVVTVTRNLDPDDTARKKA

[19] = biological target: T13, GST-INADL PDZ domain 8 (Homo sapiens (Human)), Q8NI35; test: G' assay; further: key of the grades not given here
T13 chain: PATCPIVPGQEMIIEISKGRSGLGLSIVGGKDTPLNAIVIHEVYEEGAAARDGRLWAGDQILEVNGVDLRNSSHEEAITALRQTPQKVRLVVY

[20] = biological target: T14, GST-TIP1 PDZ domain 1 (Table 9 insert) (Homo sapiens (Human)), O14907; test: G' assay; further: key of the grades not given here
T14 chain: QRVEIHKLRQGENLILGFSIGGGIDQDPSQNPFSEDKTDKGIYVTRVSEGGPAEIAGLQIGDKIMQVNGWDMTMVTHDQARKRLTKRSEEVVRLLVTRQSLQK

[21] = biological target: T15, GST-EZRIN Binding Protein 50 PDZ domain 2 (Homo sapiens (Human)), O14745; test: G' assay; further: key of the grades not given here
T15 chain: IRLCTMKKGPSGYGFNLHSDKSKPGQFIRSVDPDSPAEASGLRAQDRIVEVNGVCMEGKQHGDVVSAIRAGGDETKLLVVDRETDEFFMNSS

[22] = biological target: GST-KIAA1634 PDZ domain 1 (Homo sapiens (Human)), Q5TCQ9; test: G' assay; further: key of the grades not given here
[23] = biological target: GST-KIAA1634 PDZ domain 1 (Homo sapiens (Human)), Q5TCQ9; test: G assay titration, PDZ 0.3 ug/ml
[24] = biological target: GST-KIAA807 [GST: P08515]; test: G assay titration, PDZ 5 ug/ml
[25] = biological target: T9, GST-KIAA0807(S) PDZ domain 1 (Homo …); test: G assay titration, PDZ 5 ug/ml
[26] = biological target: T4, GST-ZO-1 PDZ domain 1 (Rattus …); test: G assay titration, PDZ 1 ug/ml
[27] = biological target: T5, GST-Atrophin-1 Interacting Protein PDZ …; test: G assay titration, PDZ 1 ug/ml
[28] = biological target: T6, GST-MUPP1 PDZ domain 10 (Homo sapiens …); test: G assay titration, PDZ 1 ug/ml
[29] = biological target: T1, GST-ZO-2 PDZ domain 1 (Homo sapiens …); test: G assay titration, PDZ 1 ug/ml
[30] = biological target: T12, GST-Shank 1 PDZ domain 1 (Homo sapiens …); test: G assay titration, PDZ 1 ug/ml
[31] = biological target: GST-PIST PDZ domain 1 (Mus musculus (Mouse)), Q8BH60; test: G assay titration, PDZ 0.5 ug/ml
[32] = biological target: T16, GST-ZO-1 PDZ domain 2 (Rattus norvegicus (Rat)), A0A0G2; test: G' assay; further: key of the grades not given here
T16 chain: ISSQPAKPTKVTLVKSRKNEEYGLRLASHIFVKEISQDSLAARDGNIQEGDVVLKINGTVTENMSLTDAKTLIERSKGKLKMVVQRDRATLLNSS

[33] = biological target: T17, GST-FLJ 10324 PDZ domain 1 [GST: P08515]; test: G' assay; further: key of the grades not given here
T17 chain: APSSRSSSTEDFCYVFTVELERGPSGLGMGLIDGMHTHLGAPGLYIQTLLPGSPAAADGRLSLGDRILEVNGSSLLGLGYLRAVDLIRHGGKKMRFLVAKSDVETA

[34] = biological target: T18, GST-PTPL1 PDZ domain 4 (Homo sapiens (Human)), Q12923; test: G' assay; further: key of the grades not given here
T18 chain: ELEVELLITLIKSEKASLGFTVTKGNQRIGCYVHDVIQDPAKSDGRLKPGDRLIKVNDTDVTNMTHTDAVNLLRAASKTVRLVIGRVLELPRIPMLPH

[35] = biological target: T19, GST-HEMBA 1003117 PDZ domain 1 (Homo sapiens (Human)), Q96JH8; test: G' assay; further: key of the grades not given here
T19 chain: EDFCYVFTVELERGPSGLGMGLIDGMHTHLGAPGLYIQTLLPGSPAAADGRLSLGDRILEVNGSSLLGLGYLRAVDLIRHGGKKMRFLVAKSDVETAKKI

[36] = biological target: T20, GST-PICK1 PDZ domain 1 (Bos taurus (Bovine)), Q2T9M1; test: G' assay; further: key of the grades not given here
T20 chain: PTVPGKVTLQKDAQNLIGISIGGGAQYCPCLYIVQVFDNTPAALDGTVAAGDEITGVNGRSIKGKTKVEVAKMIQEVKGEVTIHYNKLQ

[37] = biological target: T18, GST-PTPL1 PDZ domain 4 (Homo sapiens …); test: G assay titration, PDZ 5 ug/ml
[38] = biological target: T19, GST-HEMBA 1003117 PDZ domain 1 (Homo …); test: G assay titration, PDZ 5 ug/ml
[39] = biological target: GST-KIAA1634 PDZ domain 1 (Homo sapiens (Human)), Q5TCQ9; test: G assay titration, PDZ 5 ug/ml
[40] = biological target: T20, GST-PICK1 PDZ domain 1 (Bos taurus …); test: G assay titration, PDZ 5 ug/ml
[41] = biological target: T17, GST-FLJ 10324 PDZ domain 1 [GST: P08515]; test: G assay titration, PDZ 1 ug/ml

Sequence of GST-KIAA1634 PDZ domain 1 (Homo sapiens (Human)), Q5TCQ9 (Q5TCQ9 401-502): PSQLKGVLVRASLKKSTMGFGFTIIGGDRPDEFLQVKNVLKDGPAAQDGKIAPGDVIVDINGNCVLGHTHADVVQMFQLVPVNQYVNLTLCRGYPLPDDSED
Sequence of GST-KIAA807 [GST: P08515] (P08515 whole entry, the tested form may be a part): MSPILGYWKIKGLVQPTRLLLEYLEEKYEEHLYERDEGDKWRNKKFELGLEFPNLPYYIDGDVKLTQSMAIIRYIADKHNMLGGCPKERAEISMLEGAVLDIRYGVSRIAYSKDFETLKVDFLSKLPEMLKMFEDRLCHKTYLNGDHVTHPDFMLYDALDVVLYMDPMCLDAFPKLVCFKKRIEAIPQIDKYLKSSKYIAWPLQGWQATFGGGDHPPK
T2 sequence (Q6RHR9 455-558): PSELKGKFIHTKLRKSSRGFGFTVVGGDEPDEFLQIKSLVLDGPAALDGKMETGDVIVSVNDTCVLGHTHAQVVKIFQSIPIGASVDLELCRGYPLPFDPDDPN
T5 sequence (O88382 408-511): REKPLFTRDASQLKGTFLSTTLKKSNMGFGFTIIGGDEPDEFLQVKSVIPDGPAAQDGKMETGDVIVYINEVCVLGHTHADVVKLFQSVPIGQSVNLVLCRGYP
Sequence of GST-PSD95 PDZ domains 1, 2, 3 (Homo sapiens), P78352 (P78352 62-395): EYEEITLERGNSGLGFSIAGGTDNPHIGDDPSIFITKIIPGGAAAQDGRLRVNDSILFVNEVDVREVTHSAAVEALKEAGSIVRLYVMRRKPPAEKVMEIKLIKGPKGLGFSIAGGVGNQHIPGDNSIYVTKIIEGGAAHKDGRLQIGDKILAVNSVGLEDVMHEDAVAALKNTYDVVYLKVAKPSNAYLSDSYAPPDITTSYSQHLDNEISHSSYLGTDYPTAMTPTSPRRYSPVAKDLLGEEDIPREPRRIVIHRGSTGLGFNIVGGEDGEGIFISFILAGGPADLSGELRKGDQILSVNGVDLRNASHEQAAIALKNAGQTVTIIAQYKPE

- fold decrease of binding with drug [1]: 4.2 fold
- Kd [2]: 4000 nM
- Classification [3]: 1 A450 class
- Classification [4]: 2 A450 class
- Classification [5]: 4 A450 class
- Classification [6]: 2 A450 class
- Classification [7]: 3 A450 class
- Classification [8]: 5 A450 class
- Classification [9]: 4 A450 class
- Classification [10]: 1 A450 class
- Classification [11]: 2 A450 class
- Classification [12]: 3 A450 class
- Classification [13]: 3 A450 class
- Classification [14]: 3 A450 class
- Classification [15]: 1 A450 class
- Classification [16]: 2 A450 class
- Classification [17]: 1 A450 class
- Classification [18]: 5 A450 class
- Classification [19]: 5 A450 class
- Classification [20]: 1 A450 class
- Classification [21]: 1 A450 class
- Classification [22]: 5 A450 class
- Kd [23]: 1000 nM
- Kd [24]: 2000 nM
- Kd [25]: 2000 nM
- Kd [26]: 5000 nM
- Kd [27]: 3000 nM
- Kd [28]: 2500 nM
- Kd [29]: 3000 nM
- Kd [30]: 5000 nM
- Kd [31]: 2500 nM
B1: DNAM-1 (peptide)
peptide: TREDIYVNYPTFSRRPKTRV
modifications: not checked

- Classification [32]: 1 A450 class
- Classification [13]: 4 A450 class
- Classification [33]: 5 A450 class
- Classification [14]: 4 A450 class
- Classification [34]: 3 A450 class
- Classification [35]: 5 A450 class
- Classification [22]: 3 A450 class
- Classification [36]: 2 A450 class
- Kd [24]: 400 nM
- Kd [25]: 400 nM
- Kd [37]: 400 nM
- Kd [38]: 300 nM
- Kd [39]: 900 nM
- Kd [40]: 900 nM
- Kd [41]: 300 nM
B2: Dopamine transporter (peptide)
peptide: RELVDRGEVRQFTLRHWLKV
modifications: not checked
